Molecular target: T1, Ab3 WT recombinant Fc fragment (UniProt P01857-1 104-330 = IgG part, limits assumed)
T1 construct: domain: Fc fragment; Ab3 is an Fc fragment
Assay: Biacore SPR, pH 6.0
Description: With the biotin CAPture kit, the CAPture reagent was captured on the CAP chip surface to a binding RU of >2,000 RU, followed by 0.1 μg mL⁻¹ FcRn in the appropriate channels for 24 s at 30 uL min⁻¹ to a final binding RU of ˜2 RU. The running buffer for the FcRn binding kinetics experiments was PBS with 0.05% Surfactant P-20 (PBS-P+, GE Healthcare) at pH 6.0 or 7.4. A concentration series of a 4-fold serial dilution from 1000 nM antibody was performed in quadruplicate for each variant, including a 0 nM control. Kinetic measurements were obtained for association and dissociation times of 180 and 300 sec, respectively at a flow rate of 10 μL min⁻¹. The C1 and CAP sensor chips were regenerated with 10 mM sodium tetraborate, 1 M NaCl pH 8.5 (GE Healthcare) for 30 sec at 50 μL min⁻¹ or 6 M guanidine hydrochloride, 250 mM sodium hydroxide (GE Healthcare) for 120 s at 50 uL min¹, respectively, followed by an additional 60-90 sec stabilization step in PBS-P+pH 6.0. […]
Kinetic parameters for the concentration series at pH 6.0 were fit to a bivalent model using the Biacore T200 Evaluation Software due to avidity effects. […] The apparent binding affinity was calculated from the first on and off-rates from the bivalent model. The residual binding at pH 7.4 was measured using 1000 nM of each antibody in triplicate at the same time for response comparison.

- Kd: 61 nM
B1: mouse FcRn (receptor)
chain: SETRPPLMYHLTAVSNPSTGLPSFWATGWLGPQQYLTYNSLRQEADPCGAWMWENQVSWYWEKETTDLKSKEQLFLEALKTLEKILNGTYTLQGLLGCELASDNSSVPTAVFALNGEEFMKFNPRIGNWTGEWPETEIVANLWMKQPDAARKESEFLLNSCPERLLGHLERGRRNLEWKEPPSMRLKARPGNSGSSVLTCAAFSFYPPELKFRFLRNGLASGSGNCSTGPNGDGSFHAWSLLEVKRGDEHHYQCQVEHEGLAQPLTVDLDSSARSS
b2m: IQKTPQIQVYSRHPPENGKPNILNCYVTQFHPPHIEIQMLKNGKKIPKVEMSDMSFSKDWSFYILAHTEFTPTETDTYACRVKHASMAEPKTVYWDRDM
modifications: biotinylated
notes: only 'biotinylated ... mouse FcRn' is told; also called mFcRn

Reference: patent US20190263934A1 (published 2019)
